Measured values reported in paper PMC4431682, “Est10: A Novel Alkaline Esterase Isolated from Bovine Rumen Belonging to the New Family XV of Lipolytic Enzymes” (PLoS ONE, 2015).

Legend:
Assay in all cases: purified protein
Format in all cases: biochemical, uncultured bacterium
Details in all cases: hydrolysis, conditions of the kinetic assay not stated separately (general pNP assay: 100 mM sodium phosphate pH 8.0, Triton, 40 °C)
[1] = tested on: T1, CC(=O)Oc1ccc([N+](=O)[O-])cc1
T1 construct: whole 367-residue ORF with its putative signal peptide, N-terminal 6xHis (pET14b), E. coli BL21(DE3) pLysS, Ni-NTA; forward primer codes MIMKKQNFF; GHSQG with Ser189

[2] = tested on: T2, CCCC(=O)Oc1ccc([N+](=O)[O-])cc1
T2 construct: whole 367-residue ORF with its putative signal peptide, N-terminal 6xHis (pET14b), E. coli BL21(DE3) pLysS, Ni-NTA; forward primer codes MIMKKQNFF; GHSQG with Ser189

[3] = tested on: T3, CCCCCCCCCC(=O)Oc1ccc([N+](=O)[O-])cc1
T3 construct: whole 367-residue ORF with its putative signal peptide, N-terminal 6xHis (pET14b), E. coli BL21(DE3) pLysS, Ni-NTA; forward primer codes MIMKKQNFF; GHSQG with Ser189

Substance: Est10 (uncultured bacterium)
- Km [1]: 0.3 (0.1) mM
- kcat [1]: 0.22 s⁻¹
- kcat/Km [1]: 800 M⁻¹ s⁻¹
- Km [2]: 0.16 (0.02) mM
- kcat [2]: 3.1 s⁻¹
- kcat/Km [2]: 19000 M⁻¹ s⁻¹
- Km [3]: 0.35 (0.06) mM
- kcat [3]: 0.72 s⁻¹
- kcat/Km [3]: 2100 M⁻¹ s⁻¹
